Measured values taken from patent US20120277286A1, “COMPOSITIONS AND METHODS FOR THE TREATMENT OR PREVENTION OF MITOCHONDRIAL DISEASES” (The Government of the USA, as represented by the Secretary, …, priority 2009, published 2012).
Values joined by “and” are separate entries in the source; they are usually repeats but may differ in a detail not shown here. Identical values can stand only once.

Columns and labels:
Format in all cases: cell-based
[1] = tested on: HeLa cells; assay: Parkin colocalization with mitochondria scored by confocal microscopy; conditions: for YFP-Parkin (wild type or indicated mutant) colocalization with mitochondria, % of cells: HeLa cells, 10 μM CCCP, 1 hour; for cells with YFP-Parkin co-localized with TMRE: HeLa, no CCCP, YFP-Parkin alone or with PINK1-myc 1:4
Outline: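 Transfected HeLa cells fixed 12–24 h post-transfection in 4% paraformaldehyde. Cells immunostained for mitochondrial markers and imaged by confocal microscopy. Parkin recruitment to mitochondria assessed by line-scan colocalization.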

[2] = tested on: HeLa cells; assay: Live cell imaging, time to Parkin translocation; conditions: mCherry-Parkin alone (CCCP line) or with PINK1-YFP 1:1, 10 μM CCCP
Protocol: FIGS. 13A-13D show the kinetics of Parkin recruitment are modulated by PINK1 expression. […] The cells were imaged live following the addition of 10 μM CCCP in serum at time point 0 min FIG. 13B lists the vectors used for transfection of HeLa cells with mCherry-Parkin and the indicated construct in a 1:1 ratio were treated as in (A) and imaged live (1 frame/minute) following the addition of CCCP. Time to the beginning of Parkin translocation was defined as the first appearance of puncta in ≧2 quandrants of the cell for ≧2 consecutive images for ≧6 cells in ≧3 independent experiments. […] Cells were loaded with TMRE (red) to stain polarized mitochondria. Cells were not treated with CCCP. Scale bars in last image=10 μm. FIG. 13D is a graph that quantitates results in cells treated as described in FIG. 13C, which were scored for co-localization between YFP-Parkin and TMRE. ≧50 cells/experiment were scored in ≧3 independent experiments.
(§1) Confocal microscopy of fixed samples, scoring of Parkin recruitment and Parkin-induced mitophagy, and live cell imageing were performed as described previously (Narendra (2008) J Cell Biol 183: 795-803). Experiments in Mfn1/2 null cells were performed as described previously with minor modifications described in the supplemental methods (Narendra (2008) J Cell Biol 183: 795-803).

[3] = tested on: HeLa cells; assay: Parkin-induced mitophagy, loss of mitochondria by immunocytochemistry
Protocol: Cultured cells seeded in borosilicate chamber slides (Thermo Fisher Scientific) were transfected or cotransfected with YFP-Parkin, ECFP-Parkin, mCherry-Parkin, DsRed-Mito (Clontech Laboratories, Inc.), pcDNA3.1 (Invitrogen), vMIA, and/or Drp1K38A constructs using Fugene 6 (Roche). Parkin-myc was a gift from M. Cookson (National Institutes of Health, Bethesda, Md.). Cells were fixed 12-24 hours after transfection with 4% paraformaldehyde in PBS. Cells were stained with following primary antibodies: mouse monoclonal cytochrome c (BD), rabbit polyclonal Tom20 (Santa Cruz Biotechnology, Inc.), mouse monoclonal Parkin PRK8 (Santa Cruz Biotechnology, Inc.), rabbit polyclonal PMP70 (Invitrogen), and/or mouse monoclonal TRAP1 (Abcam); and with the following secondary antibodies: mouse and/or rabbit Alexa 488, 594, and 633 (Invitrogen). For assessment of mitochondrial membrane potential, cells were pulsed with 50 nM Mito-Tracker red (Invitrogen) for 15 min, washed, and incubated for an additional 10 minutes before fixation or imaging. For assessment of cell metabolic potential, cell nuclei were stained with Hoechst 33342 (Invitrogen).
Confocal microscopy of fixed samples, scoring of Parkin recruitment and Parkininduced mitophagy, and live cell imaging were performed as described previously (Narendra (2008) J Cell Biol 183: 795-803). Experiments in Mfn1/2 null cells were performed as described previously with minor modifications.
as §1

Molecule | YFP-Parkin (wild type or indicated mutant) colocalization with mitochondria, % of cells [1] | time to translocation of Parkin [2] [min] | cells with YFP-Parkin co-localized with TMRE [1] [%] | cells with no mitochondria ([3]; HeLa expressing YFP-Parkin variant, CCCP 24 hours) [%] | mitochondrial mass in Parkin-expressing cells ([3]; HeLa, 10 μM CCCP, 12 hours) | mitochondria detectable in Parkin-expressing cells (Tom20, cytochrome c, TRAP1) ([3]; HeLa, 10 μM CCCP, 48 hours) | cells with no mitochondria ([3]; HeLa, co-transfection with Parkin, 96 hours, absence of CCCP) [%]
N#CC(C#N)=NNc1cccc(Cl)c1 [CCCP, carbonyl cyanide m-chlorophenylhydrazone] | 78.49±2.61% and 96.0±3.5% | 32.0 ± 5.4 |  |  |  |  | 
YFP-Parkin: YFP-tagged Parkin E3 ligase expressed from a transfected vector (protein, UniProt O60260 1-465, looked up, YFP fusion, YFP-tagged Parkin E3 ligase expressed from a transfected vector) E3 ubiquitin-protein ligase …: MIVFVRFNSSHGFPVEVDSDTSIFQLKEVVAKRQGVPADQLRVIFAGKELRNDWTVQNCDLDQQSIVHIVQRPWRKGQEMNATGGDDPRNAAGGCEREPQSLTRVDLSSSVLPGDSVGLAVILHTDSRKDSPPAGSPAGRSIYNSFYVYCKGPCQRVQPGKLRVQCSTCRQATLTLTQGPSCWDDVLIPNRMSGECQSPHCPGTSAEFFFKCGAHPTSDKETSVALHLIATNSRNITCITCTDVRSPVLVFQCNSRHVICLDCFHLYCVTRLNDRQFVHDPQLGYSLPCVAGCPNSLIKELHHFRILGEEQYNRYQQYGAEECVLQMGGVLCPRPGCGAGLLPEPDQRKVTCEGGNGLGCGFAFCRECKEAYHEGECSAVFEASGTTTQAYRVDERAAEQARWEAASKETIKKTTKPCPRCHVPVEKNGGCMHMKCPQPQCRLEWCWNCGCEWNRVCMGDHWFDV | 94.7±5.8% |  | 0±0 | 59.0±15.1 | grossly reduced | no mitochondria remained detectable | 
PINK1: exogenously expressed wild type PINK1 (V5 or myc tagged) (protein, UniProt Q9BXM7 78-581, looked up, V5 or myc tag) Serine/threonine-protein …: AARLQRQFVVRAWGCAGPCGRAVFLAFGLGLGLIEEKQAESRRAVSACQEIQAIFTQKSKPGPDPLDTRRLQGFRLEEYLIGQSIGKGCSAAVYEATMPTLPQNLEVTKSTGLLPGRGPGTSAPGEGQERAPGAPAFPLAIKMMWNISAGSSSEAILNTMSQELVPASRVALAGEYGAVTYRKSKRGPKQLAPHPNIIRVLRAFTSSVPLLPGALVDYPDVLPSRLHPEGLGHGRTLFLVMKNYPCTLRQYLCVNTPSPRLAAMMLLQLLEGVDHLVQQGIAHRDLKSDNILVELDPDGCPWLVIADFGCCLADESIGLQLPFSSWYVDRGGNGCLMAPEVSTARPGPRAVIDYSKADAWAVGAIAYEIFGLVNPFYGQGKAHLESRSYQEAQLPALPESVPPDVRQLVRALLQREASKRPSARVAANVLHLSLWGEHILALKNLKLDKMVGWLLQQSAATLLANRLTEKCCVETKMKMLFLANLECETLCQAALLLCSWRAAL |  | 5.0 ± 1.5 | 45.3±7.6 |  |  |  | 42.1±7.3
